Experimental data reported in US20250257130A1 (NONA BIOSCIENCES SUZHOU, published 2025).

Assays:
[1] = molecular target: T1, Human ROR1-ECD-his (Acro Biosystems RO1-H522y) (human, UniProt Q01973 30-406); test: ELISA, coated hu-ROR1-ECD-his
T1 construct: extracellular domain; bought protein; also called hROR1-ECD-his; hu-ROR1-ECD-his

[2] = molecular target: T2, human ROR1 on cells (HEK293T-hROR1, PANC-1, A549) (human, UniProt Q01973 30-937); test: flow cytometry, HEK293T-hROR1 cells
T2 construct: whole, on cells; one molecule for the three cell lines; also called huROR1; cell surface ROR1
T2 sequence (Q01973 30-937): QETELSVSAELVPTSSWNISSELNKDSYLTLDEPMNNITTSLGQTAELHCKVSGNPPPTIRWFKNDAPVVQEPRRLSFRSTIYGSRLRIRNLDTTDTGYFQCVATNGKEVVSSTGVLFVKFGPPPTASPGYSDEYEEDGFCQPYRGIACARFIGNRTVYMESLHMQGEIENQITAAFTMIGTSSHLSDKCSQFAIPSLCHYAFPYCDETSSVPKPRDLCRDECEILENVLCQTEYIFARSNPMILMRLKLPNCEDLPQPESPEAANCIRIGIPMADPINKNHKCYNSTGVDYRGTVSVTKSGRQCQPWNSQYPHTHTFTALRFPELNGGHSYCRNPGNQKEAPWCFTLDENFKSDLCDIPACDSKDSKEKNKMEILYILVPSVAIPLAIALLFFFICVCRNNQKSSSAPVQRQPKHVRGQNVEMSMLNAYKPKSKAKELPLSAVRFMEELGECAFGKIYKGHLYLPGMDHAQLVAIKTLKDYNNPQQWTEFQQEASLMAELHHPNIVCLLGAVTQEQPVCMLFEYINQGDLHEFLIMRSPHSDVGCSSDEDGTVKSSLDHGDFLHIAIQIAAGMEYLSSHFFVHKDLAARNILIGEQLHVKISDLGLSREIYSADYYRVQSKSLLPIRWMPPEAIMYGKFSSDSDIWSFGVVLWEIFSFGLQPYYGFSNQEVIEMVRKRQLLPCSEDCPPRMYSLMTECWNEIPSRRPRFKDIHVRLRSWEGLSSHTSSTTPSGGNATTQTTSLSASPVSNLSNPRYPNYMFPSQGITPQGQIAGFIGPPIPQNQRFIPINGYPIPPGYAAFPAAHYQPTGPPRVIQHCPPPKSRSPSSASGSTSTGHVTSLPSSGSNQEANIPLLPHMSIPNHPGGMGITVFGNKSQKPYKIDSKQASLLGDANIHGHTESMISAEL
Method: (§1) In brief, anti-ROR1 antibodies were serially diluted in staining buffer (PBS containing 2% FBS). Antibody solution was incubated with 1×10⁵ cells at 4° C. for 1 hour. […] After 1-hour incubation at 4° C., cells were washed twice with staining buffer and subjected to flow cytometry. PR000374 (Bench marker 1) and non-relevant IgG isotype control (Crownbio) were used as positive and negative controls, respectively.

[3] = molecular target: T3, cynomolgus ROR1 on CHO-K1-cynoROR1 cells (cynomolgus monkey, UniProt A0A2K5WTX7 30-937); test: flow cytometry, CHO-K1-cynoROR1 cells
T3 construct: whole, on cells
Method: as §1

[4] = molecular target: T1, Human ROR1-ECD-his (Acro Biosystems …); test: ELISA, plate coated with hu-ROR1-his at 1 µg/mL
Method: Binding of recombinant anti-ROR1 antibodies to hu-ROR1-ECD-his was tested by ELISA. In brief, 1 μg/mL hu-ROR1-ECD-his was added to the 96-well plate, 100 μL each well, incubated at 4° C. overnight, washing the plates with 1×PBST 3 times, 300 ul/well, blocking the plates with 2% BSA in 1×PBST, 200 ul/well at 37° C. for 1 hour, anti-ROR1 antibodies were serially diluted in staining buffer (PBS containing 2% BSA). Antibody solution was added to the plate and incubates at 37° C. for 1 hour, washing the plates with 1×PBST 3 times, 300 ul/well, adding secondary antibody 100 ul/well and incubate at 37° C. for 1 hour, washing the plates with 1×PBST 3 times, 300 ul/well and then add 100 ul/well TMB for about 5 min, stop the reaction by adding 100 ul/well 2M H₂SO₄, read the plates with Molecular device spectra max plus384 at 450 nm and 570 nm.

[5] = molecular target: T4, hu-ROR2-ECD-his (Acrobiosystems RO2-H52E5) (human, UniProt Q01974 34-403); test: ELISA, plate coated with hu-ROR2-his at 1 µg/mL
T4 construct: extracellular domain; bought protein; also called Human ROR2 his-tagged protein; Human ROR2, His Tag
T4 sequence (Q01974 34-403): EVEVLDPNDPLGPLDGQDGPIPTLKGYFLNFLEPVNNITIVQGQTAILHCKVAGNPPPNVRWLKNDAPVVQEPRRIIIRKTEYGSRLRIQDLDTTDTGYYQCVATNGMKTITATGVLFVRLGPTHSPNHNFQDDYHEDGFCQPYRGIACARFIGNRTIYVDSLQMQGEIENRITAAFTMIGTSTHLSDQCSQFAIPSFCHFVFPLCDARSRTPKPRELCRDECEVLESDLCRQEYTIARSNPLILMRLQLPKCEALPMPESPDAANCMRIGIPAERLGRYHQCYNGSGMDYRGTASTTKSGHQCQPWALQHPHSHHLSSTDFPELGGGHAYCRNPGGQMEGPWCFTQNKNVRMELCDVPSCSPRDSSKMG
How it was run: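 Plates were coated overnight at 4 °C with 1 μg/mL human ROR2-ECD-his and blocked with 2% BSA. Serially diluted anti-ROR1 antibodies were bound for 1 h at 37 °C, then secondary antibody for 1 h at 37 °C. Detection was by TMB (~5 min), stopped with H2SO4, and read at 450/570 nm.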

[6] = molecular target: T2, human ROR1 on cells (HEK293T-hROR1, …); test: flow cytometry on HEK293T-hROR1 cells, MFI (Mean)
Method: Binding of recombinant anti-ROR1 antibodies to human or cynomolgus ROR1-overexpressing cells was tested by flow cytometry. In this example, ROR1-expressing cell lines are HEK293T cell lines that had been transfected to express human ROR1 on the surface (HEK293T-hu ROR1, KYINNO BIOTECHNOLOGY CO., LTD, Catalog #KC-1018), CHO-K1 cell lines that had been transfected to express cynomolgus ROR1 (CHOK1-cyno ROR1), PANC-1 (ATCC, catalog: CRL-1469) or A549 cell lines (Shanghai Institute of Biochemistry and Cell Biology, Chinese Academy of Sciences).
as §1

[7] = molecular target: T1, Human ROR1-ECD-his (Acro Biosystems …); test: BLI in-tandem competition; competitor: PR000374
From the text: (§2) To determine if anti-ROR1 antibodies bind to human ROR1 on different or approximate binding epitopes, the ForteBio Octet® RED96e platform was used to perform epitope competition experiments on the anti-ROR1 antibodies. Human ROR1 protein (Acrobiosystems, #RO1-H522y) was biotinylated and then captured onto SA biosensors (ForteBio, #18-5020) to reach loading level of 0.3-0.4 nm. The in-tandem competition assay format was applied and it contains two association steps. Firstly, the antigen-loaded biosensors bind to each antibody (a.k.a, First antibody, 1st Ab) with a saturating concentration of 200 nM for 180 seconds to reach equilibrium and then secondly bind to the competing antibodies (a.k.a, Second antibody, 2nd Ab) of 200 nM for 180 seconds. The second binding signals were recorded as the 100% signal of each antibody when the first antibodies were replaced by kinetics buffer. All the binding data were analyzed using ForteBio Data Analysis 11.0 software. The inhibition rate is calculated by the following formula: […]

[8] = molecular target: T1, Human ROR1-ECD-his (Acro Biosystems …); test: BLI in-tandem competition; competitor: PR303145
From the text: as §2

[9] = molecular target: T1, Human ROR1-ECD-his (Acro Biosystems …); test: BLI in-tandem competition; competitor: PR303155
From the text: as §2

[10] = molecular target: T1, Human ROR1-ECD-his (Acro Biosystems …); test: BLI in-tandem competition; competitor: PR303191
From the text: as §2

[11] = molecular target: T1, Human ROR1-ECD-his (Acro Biosystems …); test: BLI in-tandem competition; competitor: PR303199
From the text: as §2

[12] = molecular target: T1, Human ROR1-ECD-his (Acro Biosystems …); test: BLI in-tandem competition; competitor: PR303201
From the text: as §2

T1 sequence (Q01973 30-406): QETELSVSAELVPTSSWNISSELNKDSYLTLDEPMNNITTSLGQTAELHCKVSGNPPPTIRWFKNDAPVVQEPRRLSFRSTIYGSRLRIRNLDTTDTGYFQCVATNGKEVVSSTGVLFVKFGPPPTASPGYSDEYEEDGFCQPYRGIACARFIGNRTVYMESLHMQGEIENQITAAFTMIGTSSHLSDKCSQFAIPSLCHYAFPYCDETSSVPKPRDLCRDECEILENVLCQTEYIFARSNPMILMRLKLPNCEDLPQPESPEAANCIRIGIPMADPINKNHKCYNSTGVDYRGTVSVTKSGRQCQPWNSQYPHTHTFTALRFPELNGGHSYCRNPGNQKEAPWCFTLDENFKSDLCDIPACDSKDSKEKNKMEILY

| EC50 [1] [ng/mL] | EC50 [2] [µg/mL] | MAX(MFI) [2] [MFI] | EC50 [3] [µg/mL] | MAX(MFI) [3] [MFI] | EC50 (read off the curve) [4] [ng/mL] | binding result [5] | EC50 (read off the curve) [6] [µg/mL] | Inhibition (%) [7] [%] | Inhibition (%) [8] [%] | Inhibition (%) [9] [%] | Inhibition (%) [10] [%] | Inhibition (%) [11] [%] | Inhibition (%) [12] [%] | Binder |
| --- | --- | --- | --- | --- | --- | --- | --- | --- | --- | --- | --- | --- | --- | --- |
| 1 | 0.044 | 1.4e+07 | 0.03 | 9.24e+06 | ~0.7 | no binding (tested: about 15 µg/ml) | ~0.04 | -38 | -70 | -62 | 80 | -57 | 57 | PR303191 (antibody, human IgG1, V domains shown, HCAb (heavy chain-only, human IgG1 Fc), no light chain) VH: EVQLLESGGGLVQPGGSLRLSCAASGFIFGSYAMSWVRQAPGKGLEWVSGISGTGGNTYYADSVKGRFTISRDNSKNTLYLQMNSLRAEDTAVYFCERGITIHGVVIIPPDYRGQGTLVTVSS |
| 1 | 0.506 | 1.49e+07 | 0.314 | 1.05e+07 | ~0.8 | no binding (tested: about 15 µg/ml) | ~0.5 | 109 | -61 | -67 | -34 | -61 | -63 | PR000374 (antibody, human IgG1, kappa, V domains shown, positive control; also called Bench marker 1) VH: EVQLVESGGGLVQPGRSLRLSCTASGSDINDYPITWVRQAPGQGLEWIGFINSGGSTWYASWVKGRFTISRDDSKSIAYLQMNSLKTEDTAVYYCARGYSTYYRDFNIWGQGTLVTVSS VL: DIQMTQSPSSLSASVGDRVTINCQASQSIDSNLAWFQQKPGQPPKLLIYRASNLASGVPDRFSGSGSGTDFTLTISSLEAEDVATYYCLGGVGAVSYRTSFGGGTKVEIKR |
| 2 | 0.273 | 1.5e+07 | 0.222 | 8.27e+06 | ~2 | no binding (tested: about 15 µg/ml) | ~0.3 | -24 | -41 | -62 | 109 | -48 | 86 | PR303125 (antibody, human IgG1, V domains shown, HCAb (heavy chain-only, human IgG1 Fc), no light chain) VH: EVQLLESGGGLVQPGGSLRLSCAASGFTFSSHAMSWVRQAPGKGLEWVSAISGSGDSTHYAASVKGRFTISRDNSKNTLYLQMNSLRAEDTAVYYCETLLRFLESLGNDGFKIWGQGTMVTVSS |
